# Assay results taken from the nanobody polyreactivity screen of Harvey et al. (2022).
# Experiment: yeast display, Sf9 membrane polyspecificity reagent, FACS + sequencing; frameworks hold sequencing errors
# Procedure, shortened: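 Using colony PCR, genes from sorted yeast display clones were amplified, then sequenced on MiSeq at 2 × 250 and filtered by CDR length. The clones had been stained with 10% biotinylated, detergent-solubilized Sf9 membrane reagent for 1 hour at 4 °C and sorted by FACS into low and high (top ~1%) gates on anti-HA and streptavidin fluorescence. Polyreactivity labels come from the gate of origin.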
row,Sequence,polyreactivity (PSR sort gate)
1,QVQLVESGGGLVQAGGSLRLSCAASGFTINGNAMGWYRQAPGKERELVAAITWRGGSTYYADSVKGRFTISRDNAKNTVYLQMNSLKPEDTAVYYCNVEGWYDYDYWGQGTQVTVSS,high polyreactivity
2,QVQLVESGGGLVQAGGSLRLSCAASGSIFGFYGMGWYRQAPGKERELVAAISSRGGNTYYADSVKGRFTISRDNAKNTVYLQMNSLKPEDTAVYYCNAYRYVRHYSFDYWGQGTQVTVSS,high polyreactivity
3,QVQLVESGGGLVQAGGSLRLSCAASGRTFYHNAMGWYRQAPGKERELVAAITSGARTKYADSVKGRFTISRDNAKNTVYLQMNSLKPEDTAVYYCAAVYYFGKGKTFDYWGQGTQVTVSS,high polyreactivity
4,QVQLVESGGGLVQAGGSLRLTCAASGFIFLPYAMGWYRQAPGKERELVAAITRGGRTYYADSVKGRFTISRDNAKNTVYLQMNSLKPEDTAVYYCAATTYLVWGYNYWGQGTQVTVSS,low polyreactivity
5,QVQLVDSGGGLVQAGGSLRLSCAASGRTFRGNVMGWYRQAPGKEREFVAAITKSDGSTYYADSVKGRFTISRDNAKNTVYLQKNSLKPEDTAVYYCAARTARTGWPWFRYDYWGQGTQVTVSS,low polyreactivity
6,QVQLVESGGGLVQAGGSLRLSCAASGSTFPYNAMGWYRQAPGKEREFVAAITSDDTTNYADSVKGRFTISRDNAKKTVYLQMNSLKPEDTAVYYCAAEYRYPYLRGAGDYWGQGTQVTVSS,low polyreactivity
7,QVQLVESGGGLVQAGGSLRLSCAAYGGIFGRYAMGWYRQAPGKERELVAAISKRGGSTYYADSVKGRVTISRDNAKNTVYLQMNSLKPEETAVYYCNAAQSVELGYDYCGQGTQVTVSS,high polyreactivity
8,QVQLVESGGGLVQAGGSLRLSCAASGRTFNFYTMGWYRQAPGKEREFVAGITSTGGSTDYADSVKGRFTISRDNAKNSVYLQMNSLKPEDTAVYYCNKVTSFVGEYDYWGQGTQVTVSS,high polyreactivity
9,QVQLVESGGGLVQAGGSLRLSCAASRSIFRGYAMGWYRQAPVKETELVAAITQRAGSTYYADSVKGRFTISRDNAKNTVYLQMISLKPEDTAVYYCAADFYYAYYWGQGTQVTVSS,low polyreactivity
10,QVQLVESGGGLVQAGCSLRLSCAASGSTFYAYTKGGYRQAPGKERELVAAISWSDGTTYADSVKGRFTISRDNAKNTVYLQMNSLKPEDTAVYYCATDDVGPGLGYNYWGEGTQVTVSS,low polyreactivity
11,QVQLEESGGGLVQAGGSLRLIWAASGFIFRTYTMGWYRQAPGKERELVATIDSSGGSTYYADSVKGRFTISRDNAKNTVYLQMNSLKPEDTAVYYCNADLRELSPWYWYSGEMDYWGQGTQVTVSS,low polyreactivity
12,QVQLVESGGGLVQAGGSLRLSCAASGRTFWYYAMGWYRPAPGKERELVAGIRSGGSTYYADSVKGRFTISRDNAKNTVYLQMNSLKPEDTAVYYCATDYYYSNAKYDYWGQGTQVTVSS,high polyreactivity
13,QVQLVESGGGLVQAGGSLRVSCAASGFTLQRNTMGWYRQAPGKEREFVAAISVRGGSTYYADSVKGRFTISRDNAQNTVYLQMNSLKPEDTAVYYCAAVGRPTQYSYPYGYWGQGTQVTVSS,high polyreactivity
14,QVQLVESGGGLVQAGGSLRLSCAASGGTFHSNAMGWYRQAPGKERELVAAISWSDDTTYYADSVKGRFTISRDNAKNTVYLQINSLKPDDTAVYYCATVFFVLPPSRFDSWGQGTQVTVSS,low polyreactivity
15,QVQLVESGGGLVQAGGSLRLSCAASGSTQYGYAMGWYRQAPRKERELVAAINTGGSTNYADSVKGRFSISRDNAKNSVYLQMNSLKPEDTAVYYCAADYEWDAFSYDYWGQGTQVTVSS,low polyreactivity
16,QVQLVESGGGLVHAGGSLRLSCAASGRIFFDYTMGWYRQAPGKERELVAAIRTRGDSTYYADSVKGRFTISRDNAKNTFYLQMNSLKPEDTAVYYCAAAVYVRGRRESWGQGTQVTVSS,high polyreactivity
17,QVQLEESGGGLVQAGGSLRLSSAASGRTFYDNTMGWYRQSPVKERELVAAISRGGSTYADSVKGRFTISRDNAKNSVYLQMNSLKPEDTAVYYCAAVPRYQYGYWGQGTQVTVSS,low polyreactivity
18,QVQLVESGGGLVQAGGSLRLSCAASGRIFYAYTMGWYRQAPGKERELVAAISGSGSTYYADSVKGRFTISRDNAKNTVYLQMNSLKPEDTAVYYCAADVTGGRKYDYWGQGTQVTVSS,low polyreactivity
19,QVQLVESGGGLVQAGGSLRLSCAASGSTFPAYAMGWYRQAPGKERELVATITYTGGSTYYADSVKGRFTISRDNAKNTVYLQMNSLKPEDTAVYYCAADRLVQEDEFDYWGQGTQVTVSS,low polyreactivity
20,QVQLVESGGGLVQAGGSLRLICAASGFIFGSYAMGWYRQAPAKERELVAAINYDGGSTYYADSVKGRFTISRDNAKNTVYLQMNSMKPEDTAVYYCAADLYYTHMDYWGQGTQVTVSS,low polyreactivity
21,QVQLVESGGGLVQAGGSLRLSCAASGFIFDFYTMGWYRQATGKESELVAAITWSGDSTYYADSVKGRFTISRDNAKNTVYLQMNSLKPEDTAVYYCAADWWGVWYFDYDYWGQGTQVTVSS,low polyreactivity

row,Sequence,polyreactivity (PSR sort gate)
1,QVQLVESGGGLVQAGGSLRLSCAASGFIFEYYAMGWYRQAPGKERELVAAINGGGGNTYYADSVKGRFTISRDNAKNTVYLQMNSLKPEDTAVYYCNAKRRKYRYDYWGQGTEVTVSS,high polyreactivity
2,QVQLVESGGGLVQAGGSLRLSCAASGFIFPWYAMGWYRQAPGKERELVAAISSSGGRTYYADSVKGRFTISRDNAKNTVYLQMNSLKPEDTAVYYCNVANGLSQVYRYNYWGQGTQVTVSS,high polyreactivity
3,QVQLVESGGGLDQAGGSLRLSCADSGSTFGLYAMGWYRQAPGKETELVAVISWRGGSTYYADSVKGRFTISRDNAKITVYFQMNSLKPEDTAVYYCAAYCLYPYVRYDYWGLGTQVTVSS,low polyreactivity
4,QVQLVESGGGLVQAGGSLRLSCAASGRIFGLYAMGWYRHAPGKEREFVAANNWDGGSTFYADSVKGRFTISRDNAKNTVYLQMNSLKPEDTAVYSCAADVYSYVSYSTYVSVFTYDYWGQGTQVTVSS,low polyreactivity
5,QVQLVESGGGLVQAGGSLRLSCAASGITFYPYAMGWYRQAPGKERELVAAISRRGGSTNYADSVKGRFTISRDNAKNTVYLQMNSLKPEDTAVYYCNRDYPIGYRQDPVYYWGQGSQVTVSS,high polyreactivity
6,QVQLVESGGGLVQAGGSLRLRCAASGLMFYDNMGCYRQAPGKERELVAAISSSGGSTSYADSVKGRFTISRDNAKNTVYLQMNSLKPEDTAVYYCAAKWSLVRDCPKYDYWGQGTQVTVSS,low polyreactivity
7,QVQLVESGGGLVQAGGSLRLSSAASGFIFTYYAMGWYRQAPGKERELVAVITRGDSTYYADSVKGRFTISRDNAKNTVYLQMNSLKPEDTAVYYCAARGYFGWSGYSVPSTAYGYWGQGTQVTVSS,high polyreactivity
8,QVQLVESGGGLVQAGGSLRLSCAASGSTFSYNAMGWYRQAPGKERELVAAIRTSGGRTYYADSVKGRFTISRDNAKNTVYLQMNSLKPEDTAVYYCAKRWVYRYGYEYWGQGTQVTVSS,high polyreactivity
9,QVQLVESGGGLVQAGGSLRLSCAASGFIFAGNAMGWYRQAPGKEREWVAAISRRGVRTYYADSVKGRFTISRDNAKNTVYLQMNSLKPEDTAVYYCAADRPASLISSDYWGQGTQVTVSS,high polyreactivity
10,QVQLVESGGGLVQAGGSLRLSCAASGRISSYYVMGWYRQAPGKERELVAAITGGDSTNYADSVKGRFTISRDNAKNTVYLQMNSLKPEDTAVYYCAAKAYSYSRWGYYGYYYWGQGSQVTVSS,high polyreactivity
11,QVQLVESGGGLVQAGGRLRLSCAASGSTFPYYAMGWYRQAPGKERELVAVITRGGSTYYADSVKGRFTISRDNAQNTVYLQMNSLKPEDTAVYYCAARYTPGFCYWGQGTQVTVSS,high polyreactivity
12,QVQLVESGGGLVQAGGSLRLSCAASGITFRFYAMGWYRQAPGKERELVAAITSSGGSTYYADSVKGRFTISRDNAKNTVYLQMNSLKPEDTAVYYCAASYGAPYGYKRYYYWGQGTQVTVSS,high polyreactivity
13,QVHLVESGGGLVQAGASLRLSCAASGSIFVGYAMGWYRQAPGKERELVASISSGDDTYADSVKGRFTISRDNAKNTVYLQMNSLKPEDTAVYYCAKDYISVDWAYDYWGQGTQVTVSS,low polyreactivity
14,QVQLVESGGGLVQAGGSLRLSCAASGSIFFFYALGWYRQAPGNERELVAAISKSPSSTYYADSVKGRFTISRDNAKKTVYVQMNSLKPEDTAVYYCNTGYSGIQYYYWGQGTQVTVSS,low polyreactivity
15,QVQLVESGGGLVQAGGSLRLSCAASGRIFSNYAMGWYRQAPGKERELVAAISSSGGRTYYADSVKGRFTISRDNAKNTVYLQMNSLKPEDTAVYYCARRHTGTKFAFYYWGQGTQVTVSS,high polyreactivity
16,QVQLVESGGGLVQAGGSLRLSCAASGFIFRPYTMGWYRQAPGKERELVAAITSGGSTYYADSVKGRFTISRDNAKNTVYLQMNSLKPEDTAVYYCAARYQLYRRGYDYWGQGTQVTVSS,high polyreactivity
17,QVQLVESGGGLVQAGGSLRLSCAASGFIYSYAMGWYRQAPGKERELVAAISRSGGSTYYADSVKGRFTISRDNAKNTVYLQKNSLKPEDTAVYYCAALRRYPRDNIMYYYPYDYWGQGTQVTVSS,high polyreactivity
18,QVQHVESGGGLVQAGGSLRLSCAASGSIFYIYAMGWYRQAPGKERELVASISRSGGSTYYADSVKGRFTISRDNAKNTVYLQMNSLKPEDTAVYYCAAVITFYRYPPGETYYYWGQGTQVTVSS,high polyreactivity
19,QVQLVESGGGLVQAGGSLRLSCAASGRTIGPYAMGWYRQAPRKERELVAAISWSVGSTYYADSVKGRFTISRDNAKNTVYLQMNSLKPVDTAVYFCGAVYYSHVYYWGQGTQVTVSS,high polyreactivity
20,QVQLVESGGGLVQAGGSLRLSCAASGSILGSNAMGWYRQPPGKESEFVAAITTITGSTYYADSVKGRFTISRDNAKNTVYLEMNSLKPEDTAVYYCNADAHESTDYTLYFSGPYYYWGQGTQVTVSS,low polyreactivity
